Patent publication US20260152567A1 (CSPC MEGALITH BIOPHARMACEUTICAL, published 2026)

B1: Hab7C3C2.5 (antibody, human IgG1, kappa, L234A L235A, V domains shown)
VH: QVQLVQSGAEVKKPGASVKVSCKASGYTFTSYDINWVRQATGQGLEWIGWIYPRDGFTKYNEKFKGRVTLTVNTSISTAYMELSSLRSEDTAVYYCARKEGYRGDWYFDVWGQGTTVTVSS
VL: DIQMTQSPSSLSASVGDRVTITCRASGNVHNYLAWYQQKPGKAPKLLLYNAKTLASGVPSRFSGSGSGTDYTLTISSLQPEDFATYYCQHFWSTPWTFGGGTELEIKR
notes: Humanized 7C3C2; also called Hab7C3C.5
B2: Hab1F2F9.15 (antibody, human IgG1, kappa, L234A L235A, V domains shown)
VH: QVQLVQSGAEVKKPGASVKVSCKASGYTFTSYWMHWVRQAPGQRLEWMGNINPSNGGTKYSQKFQGRVTITVDTSASTAYMELSSLRSEDTAVYYCARRDYGSPSYWGQGTTVTVSS
VL: DIQMTQSPSSLSASVGDRVTITCKASQDINSYLTWFQQKPGKAPKSLIYRTNILLDGVPSRFSGSGSGTDYTLTISSLQPEDFATYYCLQYHEFPVTFGGGTKLEIKR
notes: Humanized 1F2F9; also called Huab1F2F9.15; HuablF2F9.15

Assays:
[1] = target: T1, recombinant human CD73 protein (human, UniProt P21589 27-547); assay: ELISA, plate coated with recombinant CD73 protein at 1 µg/mL
T1 construct: Bought soluble protein; The background says that CD73 forms a homodimer; also called soluble CD73; free CD73 protein
T1 sequence (looked up): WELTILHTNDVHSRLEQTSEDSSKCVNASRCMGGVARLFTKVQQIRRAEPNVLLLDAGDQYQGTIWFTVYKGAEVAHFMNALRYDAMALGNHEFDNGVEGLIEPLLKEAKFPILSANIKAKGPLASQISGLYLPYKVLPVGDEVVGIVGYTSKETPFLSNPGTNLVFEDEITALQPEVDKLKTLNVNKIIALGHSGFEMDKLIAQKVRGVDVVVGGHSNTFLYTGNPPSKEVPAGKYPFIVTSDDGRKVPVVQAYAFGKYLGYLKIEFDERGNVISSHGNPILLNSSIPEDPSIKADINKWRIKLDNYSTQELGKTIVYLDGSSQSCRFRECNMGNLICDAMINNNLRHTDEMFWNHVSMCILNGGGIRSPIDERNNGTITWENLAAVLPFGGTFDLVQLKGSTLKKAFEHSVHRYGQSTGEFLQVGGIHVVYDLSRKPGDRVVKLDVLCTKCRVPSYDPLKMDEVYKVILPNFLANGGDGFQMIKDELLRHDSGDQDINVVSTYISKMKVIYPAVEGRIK
Protocol: The affinity of the humanized antibodies to the recombinant CD73 protein was determined using an ELISA method. A elisa plate was coated with the CD73 protein at a concentration of 1 μg/mL. 5-fold gradient dilutions (0-66.7 nM) of the test antibodies were added.

[2] = target: T2, N-terminal portion of the CD73 protein (Homo sapiens (Human), UniProt P21589 27-317, limits assumed); assay: ELISA, plate coated with CD73 N-terminal protein at 1 µg/mL
T2 construct: also called CD73 N-terminal protein; N-terminus of the CD73 protein
T2 sequence: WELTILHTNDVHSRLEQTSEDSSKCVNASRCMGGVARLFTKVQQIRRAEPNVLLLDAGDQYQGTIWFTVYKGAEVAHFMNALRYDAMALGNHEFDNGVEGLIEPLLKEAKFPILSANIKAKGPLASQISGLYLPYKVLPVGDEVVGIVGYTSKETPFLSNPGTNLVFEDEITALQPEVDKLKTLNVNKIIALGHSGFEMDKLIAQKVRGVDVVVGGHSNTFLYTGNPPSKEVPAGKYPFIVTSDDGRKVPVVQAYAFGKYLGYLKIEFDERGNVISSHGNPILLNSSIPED
Protocol: In this example, the C-terminal portion (SEQ ID NO. 41) and the N-terminal portion (SEQ ID NO. 42) of the CD73 protein were separately constructed, and the epitopes recognized by the antibodies were detected by ELISA method. Elisa plates were respectively coated with the CD73 N-terminal and C-terminal proteins at a concentration of 1 μg/mL. The test antibodies were diluted in a gradient.

[3] = target: T3, cynomolgus monkey full-length CD73 on CHO-K1 cells (cynomolgus monkey, UniProt A0A2K5V5U7 27-549); assay: flow cytometry on CHO-K1 cells expressing monkey full-length CD73
T3 construct: whole, on cells; also called monkey CD73 protein expressed on cells; cynomolgus monkey CD73 on cell surface
T3 sequence: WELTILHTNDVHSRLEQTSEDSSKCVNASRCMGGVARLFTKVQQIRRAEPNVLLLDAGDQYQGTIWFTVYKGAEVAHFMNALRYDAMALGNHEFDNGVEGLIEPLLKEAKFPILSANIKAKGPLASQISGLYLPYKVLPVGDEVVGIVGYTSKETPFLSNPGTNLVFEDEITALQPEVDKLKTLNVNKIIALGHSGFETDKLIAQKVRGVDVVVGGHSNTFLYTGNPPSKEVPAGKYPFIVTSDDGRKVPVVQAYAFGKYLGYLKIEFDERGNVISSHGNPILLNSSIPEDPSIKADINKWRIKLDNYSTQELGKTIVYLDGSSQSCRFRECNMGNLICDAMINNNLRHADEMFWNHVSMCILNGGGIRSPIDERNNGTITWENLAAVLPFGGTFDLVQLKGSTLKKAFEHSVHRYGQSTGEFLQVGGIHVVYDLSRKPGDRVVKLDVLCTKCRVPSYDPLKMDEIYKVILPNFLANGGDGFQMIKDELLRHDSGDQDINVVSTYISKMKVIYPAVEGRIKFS
Protocol: In order to characterize the ability of the humanized antibodies prepared in the present application to recognize the cynomolgus monkey CD73 molecule on the cell membrane, CHO-K1 cells capable of stably expressing monkey full-length CD73 were constructed. The cells were seeded in a 96-well plate at a density of 2×10⁶ cells/mL, with 100 μL per well. The plate was washed three times with a PBS buffer, and the supernatant was discarded. The antibodies diluted in a gradient with a PBS buffer were added, and the mixture was incubated at 4° C. for 1 h. The cells were washed 3 times with a PBS buffer, followed by labeling with Alexa Fluor 488-labeled goat anti-human IgG antibody at 4° C. in the dark for 50 min. The cells were then washed 3 times with a PBS buffer, and the fluorescence intensity of the cells was read by a flow cytometer.
As shown in the results in FIG. 5 and Table 10, the prepared humanized antibodies could bind to the monkey CD73 protein expressed on cells in a dose-dependent manner.

[4] = target: T1, recombinant human CD73 protein; assay: cell-based or functional assay

| Binder | EC50 [1] [nM] | binding result [2] | EC50 [3] [nM] | Protein enzymatic activity inhibition IC50 [4] [nM] |
| --- | --- | --- | --- | --- |
| B1 | 0.013 | no binding | 11.3 | 0.018 |
| B2 | 0.011 | no binding | 1.51 | 0.011 |
